Assay results: patent US20220249561A1 (SHINSHU UNIVERSITY, published 2022)

How the values were obtained:
ALK 001P = biological target: T1, ALK 001P; experiment: SPR, Biacore 8K; ALK 001P captured on Protein A chip, ligand as analyte, 6 concentrations from 20 nM
T1 construct: ALK (1-19) is described only as a region comprising a secretory signal, and no cleavage site is stated; Expressed in Expi293 cells and captured on a Protein A chip through its Fc

LTK 001P = biological target: T2, LTK 001P; experiment: SPR, Biacore 8K; LTK 001P captured on Protein A chip, ligand as analyte, 6 concentrations from 20 nM
T2 construct: Expressed in Expi293 cells and captured on a Protein A chip through its Fc

| Binder | binding result (ALK 001P) | binding result (LTK 001P) |
| --- | --- | --- |
| Ligand 003P (ligand) DGHHHHHHGSLQDSEVNQEAKPEVKPEVKPETHINLKVSDGSSEIFFKIKKTTPLRRLMEAFAKRQGKEMDSLTFLYDGIEIQADQTPEDLDMEDNDIIEAHREQIGGLEVLFQGPAEAAGLGPSPEQRVEIVPRDLRMKDKFLKHLTGPLYFSPKCSKHFHRLYHNTRDCTIPAYYKRCARLLTRLAVSPVCMEDKQ | binds | binds |
| Ligand 005P (ligand) DGHHHHHHGSLQDSEVNQEAKPEVKPEVKPETHINLKVSDGSSEIFFKIKKTTPLRRLMEAFAKRQGKEMDSLTFLYDGIEIQADQTPEDLDMEDNDIIEAHREQIGGLEVLFQGPALGRAEAAGLGPSPEQRVEIVPRDLRMKDKFLKHLTGPLYFSPKCSKHFHRLYHNTRDCTIPAYYKRCARLLTRLAVSPVCMEDKQ | binds | binds |
| Ligand 006P (ligand) DGHHHHHHGSLQDSEVNQEAKPEVKPEVKPETHINLKVSDGSSEIFFKIKKTTPLRRLMEAFAKRQGKEMDSLTFLYDGIEIQADQTPEDLDMEDNDIIEAHREQIGGLEVLFQGPGRAEAAGLGPSPEQRVEIVPRDLRMKDKFLKHLTGPLYFSPKCSKHFHRLYHNTRDCTIPAYYKRCARLLTRLAVSPVCMEDKQ | binds | binds |
| Ligand 007P (ligand) DGHHHHHHGSLQDSEVNQEAKPEVKPEVKPETHINLKVSDGSSEIFFKIKKTTPLRRLMEAFAKRQGKEMDSLTFLYDGIEIQADQTPEDLDMEDNDIIEAHREQIGGLEVLFQGPAAGLGPSPEQRVEIVPRDLRMKDKFLKHLTGPLYFSPKCSKHFHRLYHNTRDCTIPAYYKRCARLLTRLAVSPVCMEDKQ | binds | binds |
| Ligand 008P (ligand) DGHHHHHHGSLQDSEVNQEAKPEVKPEVKPETHINLKVSDGSSEIFFKIKKTTPLRRLMEAFAKRQGKEMDSLTFLYDGIEIQADQTPEDLDMEDNDIIEAHREQIGGLEVLFQGPGLGPSPEQRVEIVPRDLRMKDKFLKHLTGPLYFSPKCSKHFHRLYHNTRDCTIPAYYKRCARLLTRLAVSPVCMEDKQ | binds | binds |
| Ligand 009P (ligand) DGHHHHHHGSLQDSEVNQEAKPEVKPEVKPETHINLKVSDGSSEIFFKIKKTTPLRRLMEAFAKRQGKEMDSLTFLYDGIEIQADQTPEDLDMEDNDIIEAHREQIGGLEVLFQGPGPSPEQRVEIVPRDLRMKDKFLKHLTGPLYFSPKCSKHFHRLYHNTRDCTIPAYYKRCARLLTRLAVSPVCMEDKQ | binds | binds |
| Ligand 010P (ligand) DGHHHHHHGSLQDSEVNQEAKPEVKPEVKPETHINLKVSDGSSEIFFKIKKTTPLRRLMEAFAKRQGKEMDSLTFLYDGIEIQADQTPEDLDMEDNDIIEAHREQIGGLEVLFQGPSPEQRVEIVPRDLRMKDKFLKHLTGPLYFSPKCSKHFHRLYHNTRDCTIPAYYKRCARLLTRLAVSPVCMEDKQ | binds | binds |
| Ligand 011P (ligand, also called Li 011P) DGHHHHHHGSLQDSEVNQEAKPEVKPEVKPETHINLKVSDGSSEIFFKIKKTTPLRRLMEAFAKRQGKEMDSLTFLYDGIEIQADQTPEDLDMEDNDIIEAHREQIGGLEVLFQGPEQRVEIVPRDLRMKDKFLKHLTGPLYFSPKCSKHFHRLYHNTRDCTIPAYYKRCARLLTRLAVSPVCMEDKQ | binds | binds |
| Ligand 012P (ligand) DGHHHHHHGSLQDSEVNQEAKPEVKPEVKPETHINLKVSDGSSEIFFKIKKTTPLRRLMEAFAKRQGKEMDSLTFLYDGIEIQADQTPEDLDMEDNDIIEAHREQIGGLEVLFQGPRVEIVPRDLRMKDKFLKHLTGPLYFSPKCSKHFHRLYHNTRDCTIPAYYKRCARLLTRLAVSPVCMEDKQ | binds | binds |
| Ligand 013P (ligand) DGHHHHHHGSLQDSEVNQEAKPEVKPEVKPETHINLKVSDGSSEIFFKIKKTTPLRRLMEAFAKRQGKEMDSLTFLYDGIEIQADQTPEDLDMEDNDIIEAHREQIGGLEVLFQGPEIVPRDLRMKDKFLKHLTGPLYFSPKCSKHFHRLYHNTRDCTIPAYYKRCARLLTRLAVSPVCMEDKQ | binds | binds |
| Ligand 014P (ligand) DGHHHHHHGSLQDSEVNQEAKPEVKPEVKPETHINLKVSDGSSEIFFKIKKTTPLRRLMEAFAKRQGKEMDSLTFLYDGIEIQADQTPEDLDMEDNDIIEAHREQIGGLEVLFQGPVPRDLRMKDKFLKHLTGPLYFSPKCSKHFHRLYHNTRDCTIPAYYKRCARLLTRLAVSPVCMEDKQ | binds | binds |
| Ligand 015P (ligand) DGHHHHHHGSLQDSEVNQEAKPEVKPEVKPETHINLKVSDGSSEIFFKIKKTTPLRRLMEAFAKRQGKEMDSLTFLYDGIEIQADQTPEDLDMEDNDIIEAHREQIGGLEVLFQGPRDLRMKDKFLKHLTGPLYFSPKCSKHFHRLYHNTRDCTIPAYYKRCARLLTRLAVSPVCMEDKQ | binds | binds |
| Ligand 016P (ligand) DGHHHHHHGSLQDSEVNQEAKPEVKPEVKPETHINLKVSDGSSEIFFKIKKTTPLRRLMEAFAKRQGKEMDSLTFLYDGIEIQADQTPEDLDMEDNDIIEAHREQIGGLEVLFQGPLRMKDKFLKHLTGPLYFSPKCSKHFHRLYHNTRDCTIPAYYKRCARLLTRLAVSPVCMEDKQ | binds | binds |
| Ligand 017P (ligand) DGHHHHHHGSLQDSEVNQEAKPEVKPEVKPETHINLKVSDGSSEIFFKIKKTTPLRRLMEAFAKRQGKEMDSLTFLYDGIEIQADQTPEDLDMEDNDIIEAHREQIGGLEVLFQGPMKDKFLKHLTGPLYFSPKCSKHFHRLYHNTRDCTIPAYYKRCARLLTRLAVSPVCMEDKQ | binds | binds |
| Ligand 023P (ligand) DGHHHHHHGSLQDSEVNQEAKPEVKPEVKPETHINLKVSDGSSEIFFKIKKTTPLRRLMEAFAKRQGKEMDSLTFLYDGIEIQADQTPEDLDMEDNDIIEAHREQIGGLEVLFQGPAEAAGLGPSPEQRVEIVPRDLRMKDKFLKHLTGPLYFSPKCSKHFHRLYHNTRDCTIPAYYKRCARLLTRLAVSPVCMED | binds | binds |
| Ligand 024P (ligand) DGHHHHHHGSLQDSEVNQEAKPEVKPEVKPETHINLKVSDGSSEIFFKIKKTTPLRRLMEAFAKRQGKEMDSLTFLYDGIEIQADQTPEDLDMEDNDIIEAHREQIGGLEVLFQGPAEAAGLGPSPEQRVEIVPRDLRMKDKFLKHLTGPLYFSPKCSKHFHRLYHNTRDCTIPAYYKRCARLLTRLAVSPVCM | binds | binds |
| Ligand 018P (ligand, also called Ligand 18P) DGHHHHHHGSLQDSEVNQEAKPEVKPEVKPETHINLKVSDGSSEIFFKIKKTTPLRRLMEAFAKRQGKEMDSLTFLYDGIEIQADQTPEDLDMEDNDIIEAHREQIGGLEVLFQGPDKFLKHLTGPLYFSPKCSKHFHRLYHNTRDCTIPAYYKRCARLLTRLAVSPVCMEDKQ | binds | binds |
| Ligand 019P (ligand) DGHHHHHHGSLQDSEVNQEAKPEVKPEVKPETHINLKVSDGSSEIFFKIKKTTPLRRLMEAFAKRQGKEMDSLTFLYDGIEIQADQTPEDLDMEDNDIIEAHREQIGGLEVLFQGPFLKHLTGPLYFSPKCSKHFHRLYHNTRDCTIPAYYKRCARLLTRLAVSPVCMEDKQ | binds | binds |
| Ligand 020P (ligand) DGHHHHHHGSLQDSEVNQEAKPEVKPEVKPETHINLKVSDGSSEIFFKIKKTTPLRRLMEAFAKRQGKEMDSLTFLYDGIEIQADQTPEDLDMEDNDIIEAHREQIGGLEVLFQGPKHLTGPLYFSPKCSKHFHRLYHNTRDCTIPAYYKRCARLLTRLAVSPVCMEDKQ | binds | binds |
| Ligand 021P (ligand) DGHHHHHHGSLQDSEVNQEAKPEVKPEVKPETHINLKVSDGSSEIFFKIKKTTPLRRLMEAFAKRQGKEMDSLTFLYDGIEIQADQTPEDLDMEDNDIIEAHREQIGGLEVLFQGPLTGPLYFSPKCSKHFHRLYHNTRDCTIPAYYKRCARLLTRLAVSPVCMEDKQ | binds | binds |
| Ligand 022P (ligand) DGHHHHHHGSLQDSEVNQEAKPEVKPEVKPETHINLKVSDGSSEIFFKIKKTTPLRRLMEAFAKRQGKEMDSLTFLYDGIEIQADQTPEDLDMEDNDIIEAHREQIGGLEVLFQGPGPLYFSPKCSKHFHRLYHNTRDCTIPAYYKRCARLLTRLAVSPVCMEDKQ | binds | binds |
